Reference: patent publication US10160812B2, “Bispecific HER2 antibodies” (MedImmune, LLC, priority 2014, dated 2018)
Where “and” joins values, the source holds several entries; their conditions need not be identical. Equal entries are not always repeated.

Experiments:
Experiment in all cases: ProteOn SPR binding of 39S to captured chimeric Her2 variants
[1] = biological target: T1, chimeric human/mouse Her2 variants (Homo sapiens, UniProt P04626, A221T/A298T/D307E/F173L/G201D/G222S/H174R/H193P/H318N/I172V/I184M/L181P/L183D/L317P/M198T/P230R/P283L/R203H/R217G/S196A/S202N/S209P/S214I/T182V/V219I/V272I); details: variant KO_II, swapped amino acids 146-310
T1 construct: His tag; made in house; host or cells: HEK293F (transient, pEBNA vector; captured from culture supernatant)
Excerpt: (§1) The domain II of human HER2 was identified as the epitope of 39S by swapping domains between human and mouse Her2 molecules. Mouse Her2 was chosen as the chimeric partner because it is not recognized by 39S, but shares 85% sequence identity with human HER2. Chimeric variants targeting each domain of HER2 were constructed (see method below) as listed in Table 4, including four knock-out (KO, loss-of-function) variants replacing domain I, II, III, or IV of human HER2 with the mouse counterpart, and one knock-in (KI, gain-of-function) variant grafting the domain II of human HER2 into mouse Her2 molecule. The chimeric variant nomenclature denotes types of variants (KO/KI) and the number of domains swapped. The binding profiles of 39S to these variants were characterized using a SPR based instrument ProteOn™ by capturing variants on sensor surfaces using anti-human and mouse Her2 polyclonal antibodies (see method below). The expression of the variants was monitored by anti-His polyclonal antibody using ProteOn™. […] Therefore, the domain II (amino acid 146-310) of human HER2 was identified as the epitope-containing domain of 39S by both loss-of-function and gain-of-function variants.
(§2) We further refined the epitope of 39S and identified the region of amino acid 192-208 in domain II as the critical epitope region. […] Seven knock-out variants were generated by replacing each of the following human HER2 regions with the mouse counterparts, including amino acids 146-208, 159-162, 171-187, 192-208, 250-261, 276-285, and 295-296. In addition, one knock-in variant was constructed by grafting the region of amino acid 192-208 of human HER2 to the mouse molecule. The variant nomenclature denotes types of variants (KO/KI) and the swapped regions with amino acid numbering. All variants had detectable expression levels by anti-His polyclonal antibody (Table 4). […] The binding of 39S was not impacted when substituting any other regions of human HER2 with mouse amino acids (KO_159-162, KO_171-187, KO_250-261, KO_276-285, and KO_295-296). […] Taken together, the region of amino acid 192-208 in domain II of human HER2 was identified as the functional epitope of 39S.
(§3) The variant nomenclature denotes types of variants (KO/KI) and the swapped regions with amino acid numbering. Amino acid positions were denoted basing on the numbering scheme of mature human HER2 sequences without its signal peptide. The expression levels of all variants were monitored by an anti-His polyclonal antibody. The binding profiles of 39S to these variants were characterized using a SPR based instrument ProteOn™ by capturing variants on sensor surfaces using anti-human and mouse Her2 polyclonal antibodies.
(§4) Construction and expression of chimeric human/mouse Her2 variants were constructed as follows. Briefly, DNAs encoding chimeric human/mouse Her2 variants with a His tag were assembled and amplified by overlapping PCR using human and mouse Her2 plasmids as templates (MedImmune). The assembled DNAs were cloned into the mammalian expression vector pEBNA (MedImmune). HEK293F cells were then transiently transfected with the various constructs using 293fectin and standard protocols according to the manufacturer's instructions (Invitrogen).
(§5) The binding characteristics of 39S to chimeric human/mouse variants were studied using a ProteOn™ XPR36 instrument (BioRad). Standard amine coupling was used to immobilize an anti-human or mouse Her2 polyclonal antibody (R&D System) in 10 mM sodium acetate (pH 5.0) to the surface of a GLC biosensor chip at ˜5000 resonance units (RU) for each channel. The chimeric proteins in cell culture supernatant were injected and captured by anti-human or mouse polyclonal antibodies onto the GLC surface with a ˜200RU response. Anti-HER2 mAb 39S was diluted in phosphate-buffered saline (PBS) (pH 7.4) with 0.005% Tween-20 from 10 nM to 0.625 nM (1:2 dilution), and injected at 100 μL/min for 180 sec with a 600-second dissociation time. […]

[2] = biological target: T2, chimeric human/mouse Her2 variants (Homo sapiens, UniProt P04626, A221T/F173L/G201D/G222S/H174R/H193P/I172V/I184M/L181P/L183D/M198T/P230R/R203H/R217G/S196A/S202N/S209P/S214I/T182V/V219I); details: variant KO_146-208
T2 construct: His tag; made in house; host or cells: HEK293F (transient, pEBNA vector; captured from culture supernatant)
Excerpt: as §1, §2, §3, §4, §5

[3] = biological target: T3, chimeric human/mouse Her2 variants (Homo sapiens, UniProt P04626, A221T/G222S/P230R/R217G/S214I/V219I); details: variant KO_192-208
T3 construct: His tag; made in house; host or cells: HEK293F (transient, pEBNA vector; captured from culture supernatant)
Excerpt: as §1, §2, §3, §4, §5

[4] = biological target: T4, chimeric human/mouse Her2 variants (Homo sapiens, UniProt P04626, A298T/D307E); details: variant KO_276-285
T4 construct: His tag; made in house; host or cells: HEK293F (transient, pEBNA vector; captured from culture supernatant)
Excerpt: as §1, §2, §3, §4, §5

[5] = biological target: T5, chimeric human/mouse Her2 variants (Homo sapiens, UniProt P04626, G201D/H193P/M198T/R203H/S196A/S202N/S209P); details: variant KO_171-187
T5 construct: His tag; made in house; host or cells: HEK293F (transient, pEBNA vector; captured from culture supernatant)
Excerpt: as §1, §2, §3, §4, §5

[6] = biological target: T6, chimeric human/mouse Her2 variants (Homo sapiens, UniProt P04626, H318N/L317P); details: variant KO_295-296
T6 construct: His tag; made in house; host or cells: HEK293F (transient, pEBNA vector; captured from culture supernatant)
Excerpt: as §1, §2, §3, §4, §5

[7] = biological target: T7, chimeric human/mouse Her2 variants (Homo sapiens, UniProt P04626, I184M/L181P/L183D/T182V); details: variant KO_159-162
T7 construct: His tag; made in house; host or cells: HEK293F (transient, pEBNA vector; captured from culture supernatant)
Excerpt: as §1, §2, §3, §4, §5

[8] = biological target: T8, chimeric human/mouse Her2 variants (Mus musculus, UniProt P70424, A197S/D184L/D202G/E308D/G218R/H204R/I215S/I220V/I273V/L174F/L284P/M185I/N203S/N319H/P182L/P194H/P210S/P318L/R175H/R231P/S223G/T199M/T222A/T299A/V173I/V183T); details: variant KI_II, human amino acids 146-310 grafted into mouse Her2; read-out: The binding affinity of 39S (KD)
T8 construct: His tag; made in house; host or cells: HEK293F (transient, pEBNA vector; captured from culture supernatant)
Excerpt: as §1, §2, §3, §4, §5

[9] = biological target: T9, chimeric human/mouse Her2 variants (Mus musculus, UniProt P70424, G218R/I215S/I220V/R231P/S223G/T222A); details: variant KI_192-208, human amino acids 192-208 grafted into mouse Her2; read-out: The binding affinity of 39S (KD)
T9 construct: His tag; made in house; host or cells: HEK293F (transient, pEBNA vector; captured from culture supernatant)
Excerpt: as §1, §2, §3, §4, §5

B1: 39S: lead optimized monoclonal antibody derived from the 1.39.1 antibody; VH SEQ ID NO:15, VL SEQ ID NO:16 (antibody, V domains shown)
VH: EVQLVESGGGLVKPGGSLRLSCAASGFTFSSYSMSWVRQAPGKGLEWVSSISSSSSYIYYADSVKGRFTISRDNAKNSLYLQMNSLRAEDTAVYYCARGGDAYNYYYFDYWGQGTLVTVSS
VL: DIVMTQTPLSLSVTPGQPASISCKSSQSVFFRSNNKNILAWYLQKPGQPPQLLIYWASSRESGVPDRFSGSGSGTDFTLKISRVEAEDVGVYYCQQYFGSPFTFGPGTKVDIK
[1]
  The binding affinity of 39S (KD): did not bind and No
[2]
  The binding affinity of 39S (KD): did not bind and No
[3]
  The binding affinity of 39S (KD): did not bind and No
[4]
  The binding affinity of 39S (KD): not impacted
[5]
  The binding affinity of 39S (KD): not impacted
[6]
  The binding affinity of 39S (KD): not impacted
[7]
  The binding affinity of 39S (KD): not impacted
[8]
  Kd: 0.168 nM and 0.163 nM
[9]
  Kd: 0.072 nM
